The test system of one data set is PolyQ35::YFP. The data set is described as follows: PolyQ35::YFP aggregation in C. elegans overexpressing NAC (fluorescence microscopy, SDD-AGE). Format: in vivo. As to conditions: day 3 of adulthood. From the text:
NAC is a major ribosome-binding factor interacting broadly with nascent chains (del Alamo et al., 2011). However, its assumed chaperone function is poorly investigated. […] Although loss of NAC causes pleiotropic defects in C. elegans (Gamerdinger et al., 2015), this finding raises the possibility that NAC directly exerts a chaperone function on aggregation-prone proteins. In this case, overexpression of NAC should prevent aggregation of PolyQ proteins in vivo. Therefore, we used a C. elegans strain expressing 35 consecutive glutamine residues fused to YFP (PolyQ35::YFP) in body wall muscle cells. This PolyQ length is close to the aggregation threshold in C. elegans muscle cells, leading to progressive, age-dependent aggregation starting at day 2 of adulthood (Morley et al., 2002). We generated transgenic animals that overexpress FLAG-tagged α- and βNAC under the control of the muscle-specific myo-3 promoter. PolyQ aggregation was assessed at day 3 of adulthood by fluorescence microscopy as well as semi-denaturing detergent agarose gel electrophoresis (SDD-AGE), which detects high molecular weight oligomeric PolyQ species (Halfmann and Lindquist, 2008). […] This is evident by magnification of the head regions showing diffuse PolyQ35::YFP and less punctate PolyQ35::YFP structures when NAC was overexpressed (FIG. 1A, head region images). […] To directly test the potential chaperone function of NAC, we employed a peptide composed of 51 consecutive glutamines (PolyQ51) as a model substrate in a well-established in vitro aggregation assay. We initiated aggregation of PolyQ51 by cleaving a solubilizing GST tag with TEV protease and detected aggregates over time using a filter trap assay.
Worms were cultured according to standard techniques with E. coli OP50 as food source (Brenner, 1974). Transgenic strains were generated using standard microinjection protocols (Mello and Fire, 1995). […]

The target of another data set is T1, AtxQ78 (Homo sapiens, UniProt P54252, INS305QQQQQQQQQQQQQQQQQQQQQQQQQQQQQQQQQQQQQQQQQQQQQQQQQQQQQQQQQQQQQQQQ).
T1 construct: full-length Ataxin-3 harboring a stretch of 78 glutamines (AtxQ78); made in house
Description: Chemical crosslinking (BS3) and mass spectrometry of NAC-AtxQ78 complexes. The data set is classed as binding. Conditions: NAC and AtxQ78 1:1, BS3 crosslinker, LC-MS. On the procedure:
For crosslinking AtxQ78 was buffer exchanged into 10 mM sodium phosphate (pH 7.2) and added to NAC at a 1:1 ratio (20 μM NAC+20 μM AtxQ78). A 1:1 mixture of BS^3-d^0 and BS^3-d^4 was added to the proteins at 20× and 50× molar excess and the reaction allowed to proceed at room temperature for 1 hour before quenching with the addition of 50 mM Tris-Cl (pH 7.5). Samples were diluted with 2× loading buffer and separated on Tris-tricine gels followed by staining with InstantBlue (Expedeon).
Gel pieces containing the crosslinked complexes were washed with 25 mM ammonium bicarbonate (pH 7.8) for 1 h with shaking. The solution was removed and the pieces destained three times with 25 mM ammonium bicarbonate in 60% acetonitrile. Gel pieces were dehydrated with 100% acetonitrile for 10 min and left to air-dry in a laminar flowhood for 1 h. Rehydration of the gel pieces was achieved by adding 0.1 mg/ml trypsin solution and incubating the samples on ice for 30 min. Excess trypsin was removed and the samples were incubated at 37° C. and 1000 rpm overnight. Peptides were extracted from the gel using 3 washes with 60% acetonitrile/5% formic acid. The extracts were pooled and concentrated using a SpeedVac before being analyzed using a nanoACQUITY LC-system coupled to a Synapt HDMS G2Si mass spectrometer. […]

The subject of data set [1] is PolyQ35::YFP C. elegans worms. Description: Paralysis assay. The data set is classed as in vivo. As to conditions: overexpression; day 6 to 10 of adulthood. On the procedure:
To analyze the percentage of paralyzed worms, 100 semi-synchronized (timed egg lay for 5 h) young adult worms of each strain were placed on a plate containing 150 μM 5-fluorodeoxyuridine. Screening of paralyzed worms was started at day 6 of adulthood.

T1 sequence (P54252 with tags, fused parts or gaps with the stated changes): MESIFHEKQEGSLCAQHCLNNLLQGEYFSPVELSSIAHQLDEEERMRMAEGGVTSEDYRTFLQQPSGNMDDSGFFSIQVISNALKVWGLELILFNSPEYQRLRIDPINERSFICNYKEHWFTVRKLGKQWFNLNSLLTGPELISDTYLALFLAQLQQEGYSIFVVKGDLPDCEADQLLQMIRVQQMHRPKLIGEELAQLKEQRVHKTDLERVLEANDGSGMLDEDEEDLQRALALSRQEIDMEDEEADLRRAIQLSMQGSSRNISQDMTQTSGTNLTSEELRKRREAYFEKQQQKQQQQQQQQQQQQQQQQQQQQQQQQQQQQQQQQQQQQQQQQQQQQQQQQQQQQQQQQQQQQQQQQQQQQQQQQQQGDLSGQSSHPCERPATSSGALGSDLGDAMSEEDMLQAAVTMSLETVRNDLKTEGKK

B1: NAC: nascent polypeptide-associated complex, heterodimer of αNAC and βNAC; species not given at the place (C. elegans icd-1/icd-2 when overexpressed in worms) (protein)
chain 1: MTGSTETRQKEVKEPQVDVSDDSDNEAVEQELTEEQRRVAEAAGLGDHIDKQAKQSRSEKKARKLFSKLGLKQVTGVSRVCIRKSKNILFVINKPDVFKSPGSDTYIIFGEAKIEDLTQHAQMSAIENLKPTREAPQLKTVEEDENEDVEEDSTGIEEKDIELVISQANTTRNKAIRALKEADNDIVNAIMSLTM
chain 2: MMDSKAIAERIKKLQAQQEHVRIGGKGTPRRKKKVIHKTAAADDKKLQSNLKKLSVTNIPGIEEVNMIKDDGTVIHFNNPKVQTSVPANTFSVTGSADNKQITEMLPGILNQLGPESLTHLKKLANNVTKLGPDGKGEDEDVPELVGDFDAASKNETKADEQ
In the case of B1, the “insoluble high molecular weight PolyQ35::YFP aggregate species” value in the data set with PolyQ35::YFP (NAC overexpressing worms) was “less insoluble high molecular weight aggregate species”. For the same molecule, the “PolyQ35::YFP aggregation” value in the data set on PolyQ35::YFP (overexpressed in body wall muscle cells (myo-3 promoter), fluorescence microscopy) is on record as “effectively suppressed PolyQ35::YFP aggregation”. For the same molecule, the “NAC regions crosslinked to AtxQ78” value in the data set with AtxQ78 is “predominantly crosslinked to AtxQ78 via the N-terminal regions of αNAC and βNAC”. Further, the “motility / age-associated paralysis of PolyQ35::YFP-expressing worms” value in data set [1] is “significantly improves motility”.

For the origin of these results see patent US12338268B2, “Compositions and methods for treating protein aggregation-associated diseases” (The Board of Trustees of the Leland Stanford Junior …, priority 2019, dated 2025).
